Experimental data as given in patent US6190659A, “Bacterial plasmin binding protein and methods of use thereof” (priority 1996, dated 2001).

Test system: O=C(O)C(CO)OP(=O)(O)O
Assay: Enolase single enzyme assay: conversion of 2-phosphoglycerate to phosphoenolpyruvate, absorbance at 240 nm
Assay type: biochemical
Settings: 7.7 mM KCl
Description: FIG. 7: Michaelis-Menten plot depicting the change in absorbance at 240 nm/minute as a function of the concentration of 2-phosphoglycerate (mM) as catalyzed by the plasmin binding protein. The change in absorbance is due to the conversion of 2-phosphoglycerate to phosphoenolpyruvate. Conditions as described in Example 1.
FIG. 8: Double-reciprocal plot depicting the change in the reciprocal of the absorbance at 240 nm/minute as a function of the reciprocal of the concentration of 2-phosphoglycerate (mM) as catalyzed by the plasmin binding protein. The change in absorbance is due to the conversion of 2-phosphoglycerate to phosphoenolpyruvate. Conditions as described in Example 1.
The molecular weight of the plasmin binding protein for one particular embodiment of the present invention has been determined to be approximately 45 kDa by SDS-PAGE.
(b) For the kinetic studies, the single enzyme assay was used, involving only the conversion of 2-phosphoglycerate to phosphoenolpyruvate by enolase. This simpler reaction avoids possible interactions of the effectors with the other enzymes. The reaction was performed at 30° C. in 100 mM HEPES buffer, pH 7.0, containing 10 mM MgSO4, 3.2 mM EDTA and 7.7 mM KCl and varying concentrations of 2-phosphoglycerate (0.19-7.5 mM). The change in absorbance/min was monitored at 240 nm. […] Michaelis-Menten and Lineweaver-Burke plots were drawn from the data obtained using 5 μg of SEN and varying concentrations of 2-phosphoglycerate (FIGS. 7 and 8). […] A concentration-dependent increase in the enolase activity was also found for the intact, washed streptococci (FIG. 5).

[1] = other: 0.1 M Hepes pH 7.0, 10 mM MgSO4, 3.2 mM EDTA, 30° C.
[2] = other: 30° C., 100 mM HEPES pH 7.0, 10 mM MgSO4, 3.2 mM EDTA, 5 μg SEN, 2-phosphoglycerate 0.19-7.5 mM, Michaelis-Menten and Lineweaver-Burke plots

streptococcal surface enolase (SEN), 45 kDa plasmin binding protein purified from group A streptococci type M6 strain D471, N-terminal sequence SEQ ID NO: 1 (Streptococcus pyogenes MGAS10394)
Km [1]: 1500 µM
Vmax [1]: 270 μmol per minute-mg protein
Km [2]: 1500 µM
Vmax [2]: 270 μmol per minute-mg protein
